Experimental data: patent US20200018762

Columns and labels:
FLAG-tagged H2B = FLAG-tagged H2B (UniProt P62807)
[1] = biological target: FLAG-tagged Y37F mutant-H2B (UniProt P62807)
[2] = tested on: biotinylated H4-derived unphosphorylated peptide TVTAMDVVYALKRQGRT
[3] = tested on: biotinylated human histone H2B derived peptide KRSRKESYSVYVYKVL
[4] = tested on: H2B peptide spanning Tyr37 (Tyr37-H2B; SRKESYSVYVYK)
[5] = tested on: H2B peptide with a Tyr37-to-Phe mutation (SRKESFSVYVYK)
[6] = tested on: purified human H2A recombinant protein (NEB)
[7] = biological target: purified human H2B recombinant protein (NEB) (UniProt P62807)
[8] = biological target: purified human H3 recombinant protein (NEB) (UniProt P68431)
[9] = biological target: purified human H4 recombinant protein (NEB) (UniProt P62805)

recombinant GST-WEE1 protein (Invitrogen), sequence (chain, as listed by the source): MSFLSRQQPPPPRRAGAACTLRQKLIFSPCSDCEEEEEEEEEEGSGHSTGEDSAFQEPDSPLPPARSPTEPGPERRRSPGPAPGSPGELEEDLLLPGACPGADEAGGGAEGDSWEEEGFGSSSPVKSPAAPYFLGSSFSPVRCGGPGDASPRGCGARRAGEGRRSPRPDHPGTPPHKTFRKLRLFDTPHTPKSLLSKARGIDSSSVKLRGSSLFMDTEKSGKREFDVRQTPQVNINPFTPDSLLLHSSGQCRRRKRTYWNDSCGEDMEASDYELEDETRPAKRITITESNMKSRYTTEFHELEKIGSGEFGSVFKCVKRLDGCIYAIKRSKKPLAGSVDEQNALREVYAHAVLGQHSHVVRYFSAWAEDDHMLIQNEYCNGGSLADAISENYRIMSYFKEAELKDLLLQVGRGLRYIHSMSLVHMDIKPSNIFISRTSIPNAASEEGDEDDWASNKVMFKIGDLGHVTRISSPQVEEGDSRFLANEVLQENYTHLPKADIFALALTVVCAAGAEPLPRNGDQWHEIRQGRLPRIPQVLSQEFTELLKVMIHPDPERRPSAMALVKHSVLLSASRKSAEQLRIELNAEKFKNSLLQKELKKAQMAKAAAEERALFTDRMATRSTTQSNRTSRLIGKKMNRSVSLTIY
Myc-tagged WEE1 (WT), sequence (chain, as listed by the source): as above
purified WEE1 protein (Examples 5 and 7), sequence (chain, as listed by the source): as above

## Myc-tagged WEE1 (WT)
FLAG-tagged H2B
  coexpression in MEFs, immunoprecipitation with pTyr37-H2B antibodies, FLAG immunoblot: the WT-WEE1 specifically phosphorylated H2B
[1]
  coexpression in MEFs, immunoprecipitation with pTyr37-H2B antibodies, FLAG immunoblot: failed to phosphorylate Y37F mutant (FIG. 13G)

## purified WEE1 protein (Examples 5 and 7)
[2]
  in vitro kinase assay on immobilized peptide, ELISA with pY88-H4 antibodies: Incubation of H4 peptide with WEE1 and Ack1 protein resulted in robust H4 Tyr88-phosphorylation
[3]
  Peptide Immunosandwich Assay (kinase reaction on immobilized peptide, detection with pY37-H2B antibodies, OD 450 nm): Purified WEE1 exhibited robust H2B Tyr37-phosphorylation and a significant decrease in pY37-H2B levels was observed upon incubation with 5 uM of MK-1775 (FIG. 34)

## recombinant GST-WEE1 protein (Invitrogen)
[4]
  in vitro kinase reaction with peptide, dot blot with pTyr37-H2B antibody: WEE1 phosphorylated H2B peptide
[5]
  in vitro kinase reaction with peptide, dot blot with pTyr37-H2B antibody: Y37F mutant peptide was not phosphorylated
[6]
  in vitro kinase assay, immunoblot with pTyr37-H2B antibody: WEE1 specifically phosphorylated H2B and failed to phosphorylate other three core histones, H2A, H3 and H4 (FIG. 13E)
[7]
  in vitro kinase assay, immunoblot with pTyr37-H2B antibody: When purified WEE1 and H2B were incubated, H2B was Tyr37-phosphorylated, however, WEE1 inhibitor abrogated H2B pTyr37-phosphorylation (FIG. 13D)
[8]
  in vitro kinase assay, immunoblot with pTyr37-H2B antibody: WEE1 specifically phosphorylated H2B and failed to phosphorylate other three core histones, H2A, H3 and H4 (FIG. 13E)
[9]
  in vitro kinase assay, immunoblot with pTyr37-H2B antibody: WEE1 specifically phosphorylated H2B and failed to phosphorylate other three core histones, H2A, H3 and H4 (FIG. 13E)
